Measurements taken from US20060292634A1 (CATCHMABS B V, published 2006).
Where a chain is given by its changes, count along the chain named.

B1: iMab111 (designed binder)
chain: NVKLVCKGGNFVENDDDLKLTCRAEGYTIGPYCMGWFRQAPNDDSTNVATINMGGGITYYGDSVKERFDIRRDNASNTVTLSMDDLQPEDSAEYNCAGDSTIYASYYECGHGLSTGGYGYDSHYRCQGTDVTVSS
notes: not shown: C-terminal linker, VSV-tag and 6xHis-tag from vector CM126
B2: iMab115 (designed binder)
chain: B1 chain with C6E, N74Q, C126G
notes: Expressed in E. coli (21 kD); also called iMab without glycosylation site
B3: iMab122 (designed binder)
chain: NVKLVEKGGNFVENDDDLKLTCRASGRTFSSRTMGWFRQAPNDDSTNVATIRWNGGSTYYTNYGDSVKERFDIRVDQASNTVTLSMDDLQPEDSAEYNCAGTDIGDGWSGRYDYRGQGTDVTVSS
notes: as for B1
B4: iMab1300 (designed binder)
chain: LQVDIKPSQGEISVGESKFFLCQASGYTIGPCISWFSPNGEKLNMGSSTLTIYNANIDDAGIYKCAADSTIYASYYECGHGLSTGGYGYQSEATVNVKIFQ
notes: as for B1
B5: iMab1302 (designed binder)
chain: VVKVVIKPSQNFIENGEDKKFTCRASGYTIGPKCIGWFSQNPEDDSTNVATINMGGGITYYGDSVKERFDIRRDNAKDTSTLSIDDAQPEDAGIYKCAADSTIYASYYECGHGLSTGGYGYDSEATVGVDIFVKLM
notes: as for B1
B6: iMab1602 (designed binder)
chain: AVKPVIGSKAPNFGENGDVKTIDRASGYTIGPTCGGVFFQGPTDDSTNVATINMGGGITYYGDSVKETFDIRRDNAKSTRTESYDDNQPEGLTEVKCAADSTIYASYYECGHGLSTGGYGYDVSSRLYGYDILVGTQ
notes: as for B1
B7: iMab1202 (designed binder)
chain: IVKLVMEKRGNFENGQDCKLTIRASGYTIGPACDGFFCQFPSDDSFSTEDNMGGGITVNDAMKPQFDIRRDNAKGTWTLSMDFQPEGIYEMQCAADSTIYASYYECGHGLSTGGYGYDNPVRLGGFDVDVPDV
notes: also called iMab1202 (1EJ6); not shown: C-terminal linker, VSV-tag and 6xHis-tag from vector CM126

How the values were obtained:
chicken lysozyme [1] = biological target: T1, chicken lysozyme (chicken, UniProt P00698 19-147); assay: ELISA on lysozyme, 100-fold dilution of the protein extract
T1 construct: Coated on ELISA plates (100 µg/ml) or immobilized on / passed over Eupergit columns
Method: (§1) The microtiter plate was excessively washed with PBS (3 times), PBS+0.1% Tween-20 (3 times) and PBS (3 times).
(§2) After excessive washing using PBS (3 times), PBS+0.1% Tween-20 (3 times) and PBS (3 times), wells were incubated with 100 μl Turbo-TMB for 5 minutes. Reaction was stopped with 100 μl 2M H₂SO₄ and absorbtion was read at 450 nm using a microtiter plate reader (Biorad).

chicken lysozyme [2] = biological target: T1, chicken lysozyme; assay: ELISA, lysozyme-coated well (100 µg/ml), ~50 ng iMab per well, anti-VSV-HRP; urea-purified
Method: as §1, §2

chicken lysozyme [3] = biological target: T1, chicken lysozyme; assay: ELISA

T1 sequence (P00698 19-147 limits assumed): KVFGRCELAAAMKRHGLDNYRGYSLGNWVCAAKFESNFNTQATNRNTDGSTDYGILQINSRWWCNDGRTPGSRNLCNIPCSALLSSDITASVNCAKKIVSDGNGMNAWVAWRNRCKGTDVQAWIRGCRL

Binder | ELISA signal over background signal (fold) (chicken lysozyme [1]) | Absorbtion (450 nm) (chicken lysozyme [2]) | binding result (chicken lysozyme [3])
B1 | ~20 fold | 0.42 A450 | 
B2 |  |  | binds
B3 |  | 0.271 A450 | 
B4 |  | 0.325 A450 | 
B5 |  | 0.345 A450 | 
B6 |  | 0.357 A450 | 
B7 |  | 0.317 A450 | 
